Measured values: patent US20060286117A1, “Neuronally expressed stem cell factor modulates angiogenesis and neural stem cell migration to areas of brain injury” (priority 2003, published 2006)
“Also recorded” adds a separate entry of the source.

Experiments:
[1] = system: HUVEC; test: Thymidine incorporation in HUVEC exposed to SCF; format: cell-based, human; details: basal medium, 48 hr
Protocol: (§1) After ECs (3×10^3/well) were adhered to 96-well gelatin-coated plates (BD Discovery Labware, Bedford, Mass.), the EC growth medium was replaced by SCF ([…]) (R&D Systems, Minneapolis, Minn.) suspended in treatment medium (basal medium with 0.1% BSA) for an additional 48 hr (HUVEC and HMVEC-d) or 72 hr (BMVEC-b) with renewal of medium at 24 hr intervals. ECs were cultured for 4 hr in 0.25 μCi of [^3H]thymidine (Amersham Pharmacia Biotech, Piscataway, N.J.) at the end. High molecular mass [^3H]-radioactivity was precipitated and counted.

[2] = system: c-Kit, MAPK and PI3K/Akt pathways in BMVEC-b; test: Immunoblot of SCF/c-Kit signal transduction, BMVEC-b; format: cell-based, bovine
Protocol: Confluent-grown ECs were treated with 50 ng/ml of SCF for 5, 10, 15, and 30 min after 24 hr of serum starvation. The ECs were collected with RIPA lysis buffer (Upstate, Charlottesville, Va.) containing 50 mM NaF, 1 mM Na3VO4, […], and Protease Inhibitor Cocktail (Roche). The antibodies were purchased from Cell Signaling Technology, Inc. (Beverly, Mass.) or as mentioned otherwise. All the primary antibodies were used in a 1:1000 dilution except for the anti-SCF antibody, which was used in a 1:2000 dilution. The primary antibodies were anti-phospho-c-Kit, anti-phospho-MEK1/2 and anti-MEK1/2, anti-phospho-p44/42 MAPK and anti-p44/42 MAPK, anti-phospho-SAPK/JNK and anti-SAPK/JNK, anti-phospho-p38 MAPK and anti-p38 MAPK, anti-phospho-Akt and anti-Akt, anti-phospho-mTOR and anti-mTOR, anti-phospho-4E-BP1 and anti-4E-BP1, anti-SCF and anti-VEGF (Chemicon, Temecula, Calif.), and anti-β-tubulin (Sigma). Re-blotting was done after membranes were stripped by re-blot kit (Chemicon). Tie2 detection in Matrigel plugs from the in vivo Matrigel assay was carried out by immunoprecipitation and immunoblotting. The gel plugs were carefully separated from muscle and skin and homogenized with RIPA lysis buffer. The resulting total tissue lysates ([…]) were immunoprecipitated with Tie2 antibody (Santa Cruz Biotechnology, Inc., Santa Cruz, Calif.) and then analyzed by immunoblot with Tie2 antibody (Zadeh et al. 2004 Am J Pathol 162:467-476).

[3] = system: glioma cells; test: Glioma cell proliferation in vitro with SCF; format: cell-based, human; details: even high concentrations of SCF
[4] = system: BMVEC-b; test: Thymidine incorporation in BMVEC-b exposed to SCF; format: cell-based, bovine; details: basal medium
Protocol: as §1

[5] = system: HBMEC; test: EC proliferation, HBMEC exposed to SCF; format: cell-based, human
[6] = system: HBMEC; test: Matrigel tube formation (EC differentiation) assay, HBMEC; format: cell-based, human
Protocol: (§2) After the Matrigel (BD Biosciences) formed a solid gel in 24-well plates, serum-starved BMVEC-b cells were seeded on the gel surface at 10^5 cells per well and cultured in treatment medium in the presence or absence of SCF (20 ng/ml). Primary HBMEC were placed on the gel directly at 24×10^3 per well. Tubular formation was observed using an inverted phase contrast microscope, and images were captured at 4 and 18 hr after cell seeding. Each experiment was repeated two or three times.

[7] = system: SCID mice; test: In vivo angiogenesis assay, matrigel plug with rmSCF (Example 3); set-up: species or system mouse; details: rmSCF 50 ng/ml, subcutaneous, 7 days, vs PBS control
Protocol: Recombinant mouse SCF (rmSCF) was used at 50 ng/ml in an in vivo angiogenesis assay. The matrigel plug containing SCF or PBS control was placed subcutaneously in SCID mice for 7 days, and the blood vessel formation within the gel was examined by H&E staining. […] In the higher magnification figure on the right side, the red blood cells inside of the newly formed vessel are indicated by an arrow.

[8] = system: endogenous NSPCs; test: In vivo progenitor cell migration, BrdU labeling and intracerebral rmSCF injection; set-up: species or system mouse; details: vs contralateral side and PBS-injected animals, day 7
[9] = system: BMVEC-b; test: Matrigel tube formation (EC differentiation) assay, BMVEC-b; format: cell-based, bovine; details: SCF 20 ng/ml
Protocol: as §2

[10] = system: SVZ stem cells; test: In vivo SVZ cell tracking by ventricular DiI or GFP adenovirus before SCF injection; set-up: species or system mouse; details: seven days after SCF injection
Protocol: For labeling of neural progenitors in vivo, BrdU (Roche) was administrated intraperitoneally twice a day, at 8-hour intervals, for 14 days (50 mg/kg body weight). Twenty hour from the last BrdU injection, several animals were killed and their brains were sectioned for BrdU immunostaining. Intracerebral injections were administered to the remaining animals. Stereotaxic surgery was performed as described in the “freeze” injury, and the injections were given at the position of 1 mm anterior to the bregma, 1.5 mm lateral to the midline, and 2.5 mm ventral to the dura. Mice received a suspension of rmSCF (3 μg in 3 μl of PBS; R&D systems) or PBS through a Hamilton syringe. Each injection took 15 min. Seven days from the intracranial injection, the animals were killed and the brains were processed for BrdU immunohistochemical analysis. For ventricular injection of DiI (1,1′-dioctadecyl-6,6′-di(4-sulfophenyl)-3,3,3′,3′-tetrametylindocarbocyanine; Molecular Probes) or adenovirus expressing GFP, 2 μl of 0.2% DiI in DMSO or 2 μl of replication incompetent adenovirus (10^8 plaque-forming units per μl) (He, T. C. et al. 1998 PNAS USA 95:2509-2514) was injected 0.5 mm posterior and 0.7 mm lateral to bregma, and 2 mm below the dura matter into the lateral ventricle. […] Seven days after SCF injection, the brains were sectioned and analyzed for DiI or GFP distributions.

[11] = SCF 50 ng/ml after serum starvation

B1: SCF: Stem cell factor protein (R&D Systems), ligand of the c-Kit receptor (protein)
chain: KEICGNPVTDNVKDITKLVANLPNDYMITLNYVAGMDVLPSHCWLRDMVIQLSLSLTTLLDKFSNISEGLSNYSIIDKLGKIVDDLVLCMEENAPKNIKESPKRPETRSFTPEEFFSIFNRSIDAFKDFMVASDTSDCVLSSTLGPEKDSRVSVTKPFMLPPVA
proliferation (thymidine incorporation) [1]: stimulated proliferation in all three primary ECs in a dose-dependent manner | duration of p38 MAPK activation ([2]; SCF 50 ng/ml): over 30 min | phosphorylation of 4E-BP1 ([2]; SCF 50 ng/ml): increased phosphorylation of 4E-BP1 | phosphorylation of Akt ([2]; SCF 50 ng/ml): significantly enhanced | phosphorylation of MEK1/2 ([2]; SCF 50 ng/ml): dramatically increased | phosphorylation of p44/42 MAPK ([2]; SCF 50 ng/ml): dramatically increased | time of SAPK/JNK activation following SCF exposure ([2]; SCF 50 ng/ml): 10 to 15 min | duration of c-Kit auto-tyrosine-phosphorylation [2, 11]: 30 min | time of peak c-Kit auto-tyrosine-phosphorylation [2, 11]: 10 to 15 min | glioma cell proliferation [3]: failed to induce proliferation | BMVEC-b proliferation increase (thymidine incorporation) ([4]; 1 ng of SCF per ml for 72 hr): approximately 6 fold | BMVEC-b proliferation increase (thymidine incorporation) ([4]; 10 ng of SCF per ml for 72 hr): ~7 fold | proliferation (thymidine incorporation) ([4]; BMVEC-b, 72 hr): stimulated proliferation in all three primary ECs in a dose-dependent manner | HBMEC proliferative response ([5]; SCF from 0.1 to 10 ng per ml): dose-dependent growth | EC growth and survival with SCF alone ([5]; without the addition of other cytokines such as VEGF): sufficient to sustain human brain microvascular EC and other EC cell growth and survival | time to mature appearing capillary-like structures [6]: ≤ 18 h | time to migration in Matrigel [6]: ≤ 4 h | blood vessel formation within the matrigel plug (H&E) [7]: stimulates angiogenesis | BrdU-positive cells in the SCF-injected area [8]: Significantly more BrdU labeled cells | time to mature appearing capillary-like structures [9]: ≤ 18 h | time to migration in Matrigel [9]: ≤ 4 h | DiI-labelled cells near the SCF injection site ([10]; ventricular DiI): greater number of DiI positive cells; also recorded: significant numbers of DiI labelled cells | GFP-positive cells in the SCF-injected cortex ([10]; ventricular GFP adenovirus): a large number of GFP-positive cells had migrated
